From publication PMC10716581, “Fanconi anemia-associated mutation in RAD51 compromises the coordinated action of DNA-binding and ATPase activities” come the findings set out here.

The target of the data set is RAD51 WT (human, UniProt Q06609 1-339). In words: EMSA; 2 mM ATP, 10 mM Mg2+; 20 mM Hepes-NaOH pH 7.5, 0.1 mg/ml BSA, 1 mM DTT, 10 mM MgCl2, 150 mM KCl, 2 mM ATP or AMP-PNP or no nucleotide, 2.7 uM (nt) DNA, 37 C 10 min; 8% native PAGE in 1x TBE. As to conditions: protein: recombinant; tags: N-terminal His-tag removed with thrombin; chain copies: 8; label: 5'-Cy5 on strand 1; blunt. (In general: A gel shift assay detects complexes by their altered migration in electrophoresis.)
RAD51 WT, sequence (Q06609 whole entry): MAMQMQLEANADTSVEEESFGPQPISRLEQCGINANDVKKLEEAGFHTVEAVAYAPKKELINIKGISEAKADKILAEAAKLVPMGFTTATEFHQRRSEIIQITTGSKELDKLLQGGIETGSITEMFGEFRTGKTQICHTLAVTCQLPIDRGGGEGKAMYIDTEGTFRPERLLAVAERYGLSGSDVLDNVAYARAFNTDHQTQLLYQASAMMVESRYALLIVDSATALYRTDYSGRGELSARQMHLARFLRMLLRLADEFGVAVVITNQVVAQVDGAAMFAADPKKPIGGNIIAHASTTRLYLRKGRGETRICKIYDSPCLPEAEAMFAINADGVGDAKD

B1: Cy5-OL4/OL5 40-mer (dsDNA)
DNA 1: TAATACAAAATAAGTAAATGAATAAACAGAGAAAATAAAG
DNA 2: CTTTATTTTCTCTGTTTATTCATTTACTTATTTTGTATTA
On to B1, for which the binding result is on record as “binds”.
